In the assay the target is T1, MBP-ARIH2 (UniProt O95376 1-493).
T1 construct: RBR-type E3 ubiquitin ligase ARIH2, cloned in this study into an MBP-tagged Gateway vector; source: E. coli BL21 (DE3), purified (Dextran-Sepharose, maltose elution)
T1 sequence (looked up): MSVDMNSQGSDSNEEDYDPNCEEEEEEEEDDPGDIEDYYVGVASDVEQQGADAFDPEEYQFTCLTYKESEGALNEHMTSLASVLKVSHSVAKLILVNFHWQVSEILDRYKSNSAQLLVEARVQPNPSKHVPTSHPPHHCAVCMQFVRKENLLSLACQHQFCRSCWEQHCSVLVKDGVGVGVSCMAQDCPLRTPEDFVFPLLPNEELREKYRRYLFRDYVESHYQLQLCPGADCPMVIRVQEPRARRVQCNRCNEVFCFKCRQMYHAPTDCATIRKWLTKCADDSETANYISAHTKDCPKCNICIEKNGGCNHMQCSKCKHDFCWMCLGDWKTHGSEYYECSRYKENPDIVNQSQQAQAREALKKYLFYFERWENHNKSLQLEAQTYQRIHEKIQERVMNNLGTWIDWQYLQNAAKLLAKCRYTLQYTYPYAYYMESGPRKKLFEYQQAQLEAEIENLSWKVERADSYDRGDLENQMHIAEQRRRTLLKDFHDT
As to the kind of experiment: pull-down; bacterially purified recombinant GST-tagged protein incubated with purified MBP-ARIH2; eluates immunoblotted with MBP antibody. Particulars: both partners purified. (In general: A western blot detects proteins with antibodies after separation by electrophoresis.)

B1: GST-Lis1 (natural protein, human, UniProt P43034 1-410, looked up)
chain: MVLSQRQRDELNRAIADYLRSNGYEEAYSVFKKEAELDVNEELDKKYAGLLEKKWTSVIRLQKKVMELESKLNEAKEEFTSGGPLGQKRDPKEWIPRPPEKYALSGHRSPVTRVIFHPVFSVMVSASEDATIKVWDYETGDFERTLKGHTDSVQDISFDHSGKLLASCSADMTIKLWDFQGFECIRTMHGHDHNVSSVAIMPNGDHIVSASRDKTIKMWEVQTGYCVKTFTGHREWVRMVRPNQDGTLIASCSNDQTVRVWVVATKECKAELREHEHVVECISWAPESSYSSISEATGSETKKSGKPGPFLLSGSRDKTIKMWDVSTGMCLMTLVGHDNWVRGVLFHSGGKFILSCADDKTLRVWDYKNKRCMKTLNAHEHFVTSLDFHKTAPYVVTGSVDQTVKVWECR
notes: Lis1 (PAFAH1B1), human, in a GST-tagged Gateway vector; source: E. coli BL21 (DE3), purified (Glutathione Sepharose)
In the case of B1, the binding result was “binds”.

Values taken from publication PMC12648486, “A LisH-domain protein interaction map reveals a Lis1-ARIH2-dynein regulatory axis” (iScience, 2025).
